Experimental data from US20200024330A1.

Legend:
Test in all cases: cell-based or functional assay
[1] = target: HIV-1 94UG103 Env (on pseudovirus) (HIV-1)
[2] = target: HIV-1 93UG077 Env (on pseudovirus) (HIV-1)
[3] = target: HIV-1 MGRM-D-018 Env (on pseudovirus) (HIV-1)
[4] = target: HIV-1 NL43 Env (on pseudovirus) (HIV-1)
[5] = target: HIV-1 92UG024 Env (on pseudovirus) (HIV-1)
[6] = target: HIV-1 MGRM-C-026 Env (on pseudovirus) (HIV-1)
[7] = target: HIV-1 JRFL Env (on pseudovirus) (HIV-1)
[8] = target: HIV-1 MGRM-C-028 Env (on pseudovirus) (HIV-1)
[9] = target: HIV-1 93IN905 Env (on pseudovirus) (HIV-1)
[10] = target: panel of HIV-1 pseudoviruses of Table 52
[11] = target: HIV-1 92TH021 Env (on pseudovirus) (HIV-1)
[12] = target: HIV-1 JRCSF Env (on pseudovirus) (HIV-1) (UniProt P20871)
[13] = target: HIV-1 MGRM-D-001 Env (on pseudovirus) (HIV-1)
[14] = target: HIV-1 MGRM-C-027 Env (on pseudovirus) (HIV-1)
[15] = target: HIV-1 APV17 Env (on pseudovirus) (HIV-1)
[16] = target: HIV-1 APV6 Env (on pseudovirus) (HIV-1)
[17] = target: HIV-1 92UG005 Env (on pseudovirus) (HIV-1)
[18] = target: HIV-1 MGRM-AG-005 Env (on pseudovirus) (HIV-1)
[19] = target: HIV-1 APV13 Env (on pseudovirus) (HIV-1)
[20] = target: aMLV envelope protein (on pseudovirus, negative control) (aMLV)
[21] = target: HIV-1 MGRM-A-010 Env (on pseudovirus) (HIV-1)
[22] = target: HIV-1 CMU02 Env (on pseudovirus) (HIV-1)
[23] = target: HIV-1 Env of isolate JR-CSF (HIV-1) (UniProt P20871)
[24] = target: HIV-1 Env of isolate 94UG103 (HIV-1)
[25] = target: HIV-1 Env of isolate 92BR020 (HIV-1)
[26] = target: HIV-1 Env of isolate MGRM-C-026 (HIV-1)

| Binder | IC50 (ug/ml), pseudovirus neutralization [1] | IC50 (ug/ml), pseudovirus neutralization [2] | IC50 (ug/ml), pseudovirus neutralization [3] | IC50 (ug/ml), pseudovirus neutralization [4] | IC50 (ug/ml), pseudovirus neutralization [5] | IC50 (ug/ml), pseudovirus neutralization [6] | IC50 (ug/ml), pseudovirus neutralization [7] | IC50 (ug/ml), pseudovirus neutralization [8] | IC50 (ug/ml), pseudovirus neutralization [9] | % neutralized (viruses of the panel) [10] | median IC50 (ug/ml), pseudovirus neutralization [10] | IC50 (ug/ml), pseudovirus neutralization [11] | IC50 (ug/ml), pseudovirus neutralization [12] | IC50 (ug/ml), pseudovirus neutralization [13] | IC50 (ug/ml), pseudovirus neutralization [14] | IC50 (ug/ml), pseudovirus neutralization [15] | IC50 (ug/ml), pseudovirus neutralization [16] | IC50 (ug/ml), pseudovirus neutralization [17] | IC50 (ug/ml), pseudovirus neutralization [18] | IC50 (ug/ml), pseudovirus neutralization [19] | also measured |
| --- | --- | --- | --- | --- | --- | --- | --- | --- | --- | --- | --- | --- | --- | --- | --- | --- | --- | --- | --- | --- | --- |
| PGT-135 (5343_B08; 5344_E16) (antibody, V domains shown) VH: QLQMQESGPGLVKPSETLSLSCTVSGDSIRGGEWGDKDYHWGWVRHSAGKGLEWIGSIHWRGTTHYKESLRRRVSMSIDTSRNWFSLRLASVTAADTAVYFCARHRHHDVFMLVPIAGWFDVWGPGVQVTVSS VL: EIVMTQSPDTLSVSPGETVTLSCRASQNINKNLAWYQYKPGQSPRLVIFETYSKIAAFPARFVASGSGTEFTLTINNMQSEDVAVYYCQQYEEWPRTFGQGTKVDIK | > 10 µg/mL | > 10 µg/mL | 0.0433 µg/mL | 6.79 µg/mL | 0.0139 µg/mL | 0.0123 µg/mL | > 10 µg/mL | 2.16 µg/mL | 0.0183 µg/mL | 54% | 0.11 µg/mL | > 10 µg/mL | 0.113 µg/mL | > 10 µg/mL | > 10 µg/mL | > 10 µg/mL | > 10 µg/mL | > 10 µg/mL | > 10 µg/mL | 0.545 µg/mL | IC50 (ug/ml), pseudovirus neutralization [20]: > 10 µg/mL; IC50 (ug/ml), pseudovirus neutralization [21]: > 10 µg/mL; IC50 (ug/ml), pseudovirus neutralization [22]: > 10 µg/mL |
| 4869_K15 (antibody, V domains shown) VH: QVHLQESGPGLVTPSETLSLTCTVSNGSVSGRFWSWIRQSPGRGLEWIGYFSDTDRSEYNPSLRSRLTLSVDRSKNQLSLRLKSVTAADSATYYCARAQQGKRIYGIVSFGEFFYYYYMDAWGKGTPVTVSS VL: SLNPLSLAPGATAKIPCGERSRGSRAVQWYQQKPGQAPTLIIYNNQDRPAGVSERFSGNPDVAIGVTATLTISRVEVGDEADYYCHYWDSRSPISWIFGGGTQLTVL | – | – | – | – | – | – | – | – | – | – | – | – | – | – | – | – | – | – | – | – | Primary Neutralization Index (B cell culture well 4869 K15) [23]: 2.1; Primary Neutralization Index (B cell culture well 4869 K15) [24]: 1.5; Primary Neutralization Index (B cell culture well 4869 K15) [25]: 3.9; Primary Neutralization Index (B cell culture well 4869 K15) [26]: 104 |
| PGT-136 (5329_C19; 5366_P21) (antibody, V domains shown) VH: QLQLQESGPGLVKPSETLSLTCTVSGGSMRGTDWGENDFHYGWIRQSSAKGLEWIGSIHWRGRTTHYKTSFRSRATLSIDTSNNRFSLTFSFVTAADTAVYYCARHKYHDIFRVVPVAGWFDPWGQGLLVTVSS VL: EIVMTQSPPTLSVSPGETATLSCRASQNVKNNLAWYQLKPGQAPRLLIFDASSRAGGIPDRFSGSGYGTDFTLTVNSVQSEDFGDYFCQQYEEWPRTFGQGTKVDIK | > 10 µg/mL | > 10 µg/mL | > 10 µg/mL | > 10 µg/mL | 0.0915 µg/mL | 0.0065 µg/mL | > 10 µg/mL | > 10 µg/mL | 0.0135 µg/mL | 18% | 0.05 µg/mL | > 10 µg/mL | > 10 µg/mL | > 10 µg/mL | > 10 µg/mL | > 10 µg/mL | > 10 µg/mL | > 10 µg/mL | > 10 µg/mL | > 10 µg/mL | IC50 (ug/ml), pseudovirus neutralization [20]: > 10 µg/mL; IC50 (ug/ml), pseudovirus neutralization [21]: > 10 µg/mL; IC50 (ug/ml), pseudovirus neutralization [22]: > 10 µg/mL |
